Assay results taken from patent US20240116985A1 (published 2024).
Starred links: 1 amine or outer side, 2 acyl side, 3 side chain; linkers in the order of their positions; H or OH if unused. Positions of bridges follow the written chain, without caps; N, C: chain ends. Non-standard residues stand in square brackets, D forms with d. Primed or numbered codes have the meaning given here. *: point of attachment. B5(11) = 2,2-bis(4-pentenyl)glycine = 2-amino-2-(pent-4-en-1-yl)hept-6-enoic acid (stitching residue, bears both staples), C=CCCCC(CCCC=C)(N[*:1])C(=O)[*:2]; B5(26) = 2-amino-2-(pent-4-en-1-yl)hept-6-enoic acid (bis-pentenylglycine), stitching residue carrying two staples, C=CCCCC(CCCC=C)(N[*:1])C(=O)[*:2]; PyrS2(3) = (S)-3-amino-1-((pent-4-en-1-yloxy)carbonyl)pyrrolidine-3-carboxylic acid, stapling residue, C=CCCCOC(=O)N1CC[C@@](N[*:1])(C(=O)[*:2])C1; PyrS2″ = (S)-3-amino-1-((pent-4-en-1-yloxy)carbonyl)pyrrolidine-3-carboxylic acid (stapling residue), C=CCCCOC(=O)N1CC[C@@](N[*:1])(C(=O)[*:2])C1; PyrS3″ = (S)-3-amino-1-((hex-5-en-1-yloxy)carbonyl)pyrrolidine-3-carboxylic acid (stapling residue), C=CCCCCOC(=O)N1CC[C@@](N[*:1])(C(=O)[*:2])C1; B5(24) = 2-amino-2-(pent-4-en-1-yl)hept-6-enoic acid, 2,2-bis(4-pentenyl)glycine (stitching residue), C=CCCCC(CCCC=C)(N[*:1])C(=O)[*:2]; B5(4) = 2,2-bis(4-pentenyl)glycine = 2-amino-2-(pent-4-en-1-yl)hept-6-enoic acid (stitching residue), C=CCCCC(CCCC=C)(N[*:1])C(=O)[*:2]; B5(21) = 2-amino-2-(pent-4-en-1-yl)hept-6-enoic acid, bis(4-pentenyl)glycine (stitching residue), C=CCCCC(CCCC=C)(N[*:1])C(=O)[*:2]; B5(6) = 2-amino-2-(pent-4-en-1-yl)hept-6-enoic acid (bis(4-pentenyl)glycine), stitching residue, C=CCCCC(CCCC=C)(N[*:1])C(=O)[*:2]; TfeGA = (S)-2-amino-3-((carboxymethyl)(2,2,2-trifluoroethyl)amino)propanoic acid, O=C([C@H](CN(CC(=O)[*:3])CC(F)(F)F)N[*:1])[*:2]; B5″ = 2,2-bis(4-pentenyl)glycine, stitching residue, C=CCCCC(CCCC=C)(N[*:1])C(=O)[*:2]; S(OMe) = O-methyl-L-serine, COC[C@H](N[*:1])C(=O)[*:2]; Phe(2-NO2) = N[C@@H](Cc1ccccc1[N+](=O)[O-])C(=O)O; Phe(2-Br) = N[C@@H](Cc1ccccc1Br)C(=O)O; Phe(2-CN) = N#Cc1ccccc1C[C@H](N)C(=O)O; Phe(2-Cl) = N[C@@H](Cc1ccccc1Cl)C(=O)O; Phe(2-OMe) = COc1ccccc1C[C@H](N)C(=O)O; Phe(3-F) = N[C@@H](Cc1cccc(F)c1)C(=O)O; Phe(4-F) = N[C@@H](Cc1ccc(F)cc1)C(=O)O; His(τ-Me) = Cn1cnc(C[C@H](N)C(=O)O)c1; Phe(2-F) = N[C@@H](Cc1ccccc1F)C(=O)O; Bta = N[C@@H](Cc1csc2ccccc12)C(=O)O; His(π-Me) = Cn1cncc1C[C@H](N)C(=O)O; αAllylPro = C=CC[C@@]1(C(=O)O)CCCN1; NMeH = CN[C@@H](Cc1c[nH]cn1)C(=O)O; tBuAla = CC(C)(C)C[C@H](N)C(=O)O; 2Thi = N[C@@H](Cc1cccs1)C(=O)O; 3Thi = N[C@@H](Cc1ccsc1)C(=O)O; S8 = C=CCCCCCC[C@](C)(N)C(=O)O; Thr(ol) = C[C@@H](O)[C@H](N)CO; Alaol = C[C@@H](CO)N*; Ms = CS(=O)(=O)*

B1: I-745 (peptide)
peptide: XDLXDEAAFNXFXH
modifications: not fully specified; N-terminal Ac; C-terminal NH2; PL3 at 1, B5 at 4, S8 at 11, BztA at 13, dHis (D-His) at 14; stapled PL3-B5 and B5-S8 by olefin metathesis
notes: Stapled peptide; same description as I-744, later eluting staple isomer composition; also called Ac-PL3-Asp-Leu-B5-Asp-Glu-Ala-Ala-Phe-Asn-S8-Phe-BztA-dHis-NH2
B2: I-747 (peptide)
peptide: Ac-[αAllylPro]DL[B5(11)]DEAAFN[S8]F[Bta][NMeH]-NH2
modifications: staple 1-4, 4-11; not fully specified
notes: Stapled peptide; same description as I-746, later eluting staple isomer composition; also called Ac-PL3-Asp-Leu-B5-Asp-Glu-Ala-Ala-Phe-Asn-S8-Phe-BztA-NMeHis-NH2
B3: I-748 (peptide)
peptide: XDLXDEAAFNXFXT
modifications: not fully specified; N-terminal Ac; C-terminal NH2; PL3 at 1, B5 at 4, S8 at 11, BztA at 13; stapled PL3-B5 and B5-S8 by olefin metathesis
notes: Stapled peptide; same description as I-749, earlier eluting staple isomer composition; also called Ac-PL3-Asp-Leu-B5-Asp-Glu-Ala-Ala-Phe-Asn-S8-Phe-BztA-Thr-NH2
B4: I-746 (peptide)
peptide: Ac-[αAllylPro]DL[B5(11)]DEAAFN[S8]F[Bta][NMeH]-NH2
modifications: staple 1-4, 4-11; not fully specified
notes: Stapled peptide; same description as I-747, earlier eluting staple isomer composition; also called Ac-PL3-Asp-Leu-B5-Asp-Glu-Ala-Ala-Phe-Asn-S8-Phe-BztA-NMeHis-NH2
B5: I-450 (peptide)
peptide: Ac-[αAllylPro]DA[B5(21)]DEAA[2Thi]Q[S8][Phe(3-F)]WQ-NH2
modifications: staple 1-4, 4-11
notes: Stapled (stitched) peptide with non-natural residues
B6: I-463 (peptide)
peptide: Ac-[αAllylPro]DA[B5(21)]DEAAFN[PyrS3″]F[Bta]Q-NH2
modifications: staple 1-4, 4-11; also: earlier-eluting HPLC staple isomer
notes: Staple isomer composition: earlier-eluting HPLC peak
B7: I-435 (peptide)
peptide: Ac-[αAllylPro]DA[B5(24)]DEAAFN[S8][Phe(2-Cl)][Bta]Q-NH2
modifications: staple 1-4, 4-11
notes: as for B5
B8: I-436 (peptide)
peptide: Ac-[αAllylPro]DA[B5(24)]DEAAFN[S8][Phe(2-Br)][Bta]Q-NH2
modifications: staple 1-4, 4-11
notes: as for B5
B9: I-453 (peptide)
peptide: Ac-[αAllylPro]DA[B5(21)]DEAA[Phe(2-F)]N[S8]F[Bta]Q-NH2
modifications: staple 1-4, 4-11
notes: as for B5
B10: I-462 (peptide)
peptide: Ac-[αAllylPro]DA[B5(21)]DEAAFN[PyrS2″]F[Bta]Q-NH2
modifications: staple 1-4, 4-11
notes: as for B5
B11: I-464 (peptide)
peptide: Ac-[αAllylPro]DA[B5(21)]DEAAFN[PyrS3″]F[Bta]Q-NH2
modifications: staple 1-4, 4-11; not fully specified; printed as Ac-PL3-Asp-Ala-B5-Asp-Glu-Ala-Ala-Phe-Asn-PyrS3-Phe-BztA-Gln-NH2
notes: Staple isomer composition: later-eluting HPLC peak
B12: I-469 (peptide)
peptide: Ac-[αAllylPro]DI[B5(6)]DDAAFN[S8]F[Bta]H-NH2
modifications: staple 1-4, 4-11; also: staple isomer composition: earlier-eluting HPLC peak
notes: as for B6
B13: I-468 (peptide)
peptide: Ac-[αAllylPro]DI[B5(6)]DDAAFN[S8]F[Bta]Q-NH2
modifications: staple 1-4, 4-11; also: staple isomer composition: later-eluting HPLC peak
notes: as for B11
B14: I-467 (peptide)
peptide: Ac-[αAllylPro]DI[B5(6)]DDAAFN[S8]F[Bta]Q-NH2
modifications: staple 1-4, 4-11; also: staple isomer composition: earlier-eluting HPLC peak
notes: as for B6
B15: I-441 (peptide)
peptide: Ac-[αAllylPro]DA[B5(21)]DEAAFN[S8][Phe(2-NO2)][Bta]Q-NH2
modifications: staple 1-4, 4-11
notes: as for B5
B16: I-434 (peptide)
peptide: Ac-[αAllylPro]DA[B5(24)]DEAAFN[S8][Phe(2-F)][Bta]Q-NH2
modifications: staple 1-4, 4-11
notes: as for B5
B17: I-433 (peptide)
peptide: Ac-[αAllylPro]DA[B5(24)]DEAAF[S(OMe)][S8]F[Bta]Q-NH2
modifications: staple 1-4, 4-11
notes: as for B5
B18: I-438 (peptide)
peptide: Ac-[αAllylPro]DA[B5(26)]DEAAFN[S8][His(π-Me)][Bta]Q-NH2
modifications: staple 1-4, 4-11
notes: as for B5
B19: I-439 (peptide)
peptide: Ac-[αAllylPro]DA[B5(21)]DEAAFN[S8][His(τ-Me)][Bta]Q-NH2
modifications: staple 1-4, 4-11
notes: as for B6
B20: I-440 (peptide)
peptide: XDAXDEAAFNXHXQ
modifications: not fully specified; Ac-PL3-Asp-Ala-B5-Asp-Glu-Ala-Ala-Phe-Asn-S8-1meH-BztA-Gln-NH2; N-terminal acetyl, C-terminal amide; stapled PL3(1)-B5(4) and B5(4)-S8(11) by olefin metathesis
notes: as for B11
B21: I-454 (peptide)
peptide: Ac-[αAllylPro]DA[B5(21)]DEAA[Phe(3-F)]N[S8]F[Bta]Q-NH2
modifications: staple 1-4, 4-11
notes: as for B5
B22: I-455 (peptide)
peptide: Ac-[αAllylPro]DA[B5(21)]DEAA[Phe(4-F)]N[S8]F[Bta]Q-NH2
modifications: staple 1-4, 4-11
notes: as for B5
B23: I-437 (peptide)
peptide: Ac-[αAllylPro]DA[B5(24)]DEAAFN[S8][Phe(2-OMe)][Bta]Q-NH2
modifications: staple 1-4, 4-11
notes: as for B5
B24: I-1218 (peptide)
peptide: Ms-[αAllylPro]D[tBuAla][B5″]DDAAFN[PyrS2(3)][3Thi][Bta]Q-NH2
modifications: staple 1-4, 4-11; not fully specified; printed as MeSO2-PL3-Asp-Npg-B5-Asp-Asp-Ala-Ala-Phe-Asn-PyrS2-3Thi-BztA-Gln-NH2

Biological target: T1, full-length beta-Catenin (Uniprot ID P35222) (Homo sapiens (Human), UniProt P35222 1-781)
T1 construct: also called bCat; B-Catenin
T1 sequence: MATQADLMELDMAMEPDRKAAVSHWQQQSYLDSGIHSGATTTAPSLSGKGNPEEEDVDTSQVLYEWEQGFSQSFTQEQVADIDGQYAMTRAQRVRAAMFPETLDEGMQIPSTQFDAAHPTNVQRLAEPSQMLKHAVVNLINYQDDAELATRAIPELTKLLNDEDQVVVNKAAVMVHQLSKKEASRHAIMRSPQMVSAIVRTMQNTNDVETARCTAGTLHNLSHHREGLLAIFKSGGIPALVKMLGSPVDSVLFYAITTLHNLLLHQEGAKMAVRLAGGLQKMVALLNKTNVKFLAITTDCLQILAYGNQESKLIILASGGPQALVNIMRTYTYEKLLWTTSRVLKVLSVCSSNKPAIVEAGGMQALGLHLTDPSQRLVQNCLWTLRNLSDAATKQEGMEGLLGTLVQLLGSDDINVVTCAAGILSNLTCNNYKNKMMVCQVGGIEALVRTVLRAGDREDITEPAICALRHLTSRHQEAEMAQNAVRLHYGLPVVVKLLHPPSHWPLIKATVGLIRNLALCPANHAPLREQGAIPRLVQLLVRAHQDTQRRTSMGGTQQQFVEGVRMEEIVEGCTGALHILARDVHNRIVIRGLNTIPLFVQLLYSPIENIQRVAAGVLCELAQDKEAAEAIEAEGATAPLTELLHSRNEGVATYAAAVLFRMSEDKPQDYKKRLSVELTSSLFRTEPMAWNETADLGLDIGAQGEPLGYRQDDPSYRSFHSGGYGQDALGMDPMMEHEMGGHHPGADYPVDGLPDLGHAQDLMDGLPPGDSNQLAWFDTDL
Assay: fluorescence polarization competition; full-length beta-catenin, competitor 5FAM-TCF4(10-53) probe
Experimental: (§1) The plate was incubated protected from light for 60 minutes at 20° C. prior to read. Reads were performed on a CLARIOstar plate reader (BMG Labtech) in duplicate, and data were fitted to a 1:1 binding model with hill slope using an in-house script. All provided concentrations are final concentrations.

Binder | IC50 [nM]
B1 | 80
B2 | 2390
B3 | 54
B4 | 5000

Biological target: T2, full-length beta-Catenin (Uniprot ID P35222) (Homo sapiens (Human), UniProt P35222 1-781)
T2 construct: The assay protocol says full-length beta-Catenin (Uniprot ID P35222); tags are not described; also called bCat; B-Catenin
T2 sequence: T1 sequence
Assay: fluorescence polarization competition: full-length beta-catenin + 5FAM-TCF4(10-53) probe, peptide titrated
Experimental: as §1

Binder | EC50 [nM]
B5 | 3720
B6 | 92
B7 | 70
B8 | 56
B9 | 1550
B10 | 28
B11 | 57
B12 | 27
B13 | 27
B14 | 44
B15 | 133
B16 | 67.5
B17 | 136
B18 | 5000
B19 | 5000
B20 | 5000
B21 | 125
B22 | 83.5
B23 | 26

Biological target: T3, B-cat-Halo (UniProt P35222 1-781)
T3 sequence (looked up): T1 sequence
Assay: cell-based or functional assay

Binder | NanoBRET Abs IC50 [nM]
Ac-[αAllylPro]D[tBuAla][B5″]NDAAFL[PyrS2(3)][3Thi][Bta]Q-NH2 (staple 1-4, 4-11) [I-1207] | 7500
Ac-[αAllylPro]N[tBuAla][B5(4)]DDAAFN[PyrS2″][3Thi][Bta]Q-NH2 (staple 1-4, 4-11) [I-1220] | 17300
B24 | > 20000
Ac-[αAllylPro]D[tBuAla][B5(4)]DDAAFL[PyrS2″][Phe(2-Cl)][Bta]-Alaol (staple 1-4, 4-11) [I-1250] | > 20000
Ac-[αAllylPro]D[tBuAla][B5″]DDAAFL[PyrS2(3)][Phe(2-CN)][Bta]Q-NH2 (staple 1-4, 4-11) [I-1203] | 10000
Ac-[αAllylPro]N[tBuAla][B5(4)]DDAAFL[PyrS2″][3Thi][Bta]Q-NH2 (staple 1-4, 4-11) [I-1221] | 23400
Ms-[αAllylPro]D[tBuAla][B5″]D[TfeGA]AAFN[PyrS2(3)][3Thi][Bta]Q-NH2 (staple 1-4, 4-11; not fully specified) [I-1219] | > 20000
Ac-[αAllylPro]D[tBuAla][B5(4)]DDAAFL[PyrS2″][Phe(2-Cl)][Bta]Q-NHEt (staple 1-4, 4-11) [I-1248] | 29700
Ac-[αAllylPro]D[tBuAla][B5(4)]DDAAFL[PyrS2″][Phe(2-Cl)][Bta][Thr(ol)] (staple 1-4, 4-11) [I-1249] | 25200
Ac-[αAllylPro]D[tBuAla][B5″]NDAAFN[PyrS2(3)][3Thi][Bta]Q-NH2 (staple 1-4, 4-11) [I-1206] | 27800
